Assay results from patent US20190062420A1 (Janssen / Centocor, published 2019).
Blank lines part the entries; values can stand above or below the binder they belong to.

Assays:
[1] = target: T1, human FcγRIIB (NM_004001) expressed on cells (human, UniProt P31994 43-310); experiment: cell-based or functional assay
T1 sequence: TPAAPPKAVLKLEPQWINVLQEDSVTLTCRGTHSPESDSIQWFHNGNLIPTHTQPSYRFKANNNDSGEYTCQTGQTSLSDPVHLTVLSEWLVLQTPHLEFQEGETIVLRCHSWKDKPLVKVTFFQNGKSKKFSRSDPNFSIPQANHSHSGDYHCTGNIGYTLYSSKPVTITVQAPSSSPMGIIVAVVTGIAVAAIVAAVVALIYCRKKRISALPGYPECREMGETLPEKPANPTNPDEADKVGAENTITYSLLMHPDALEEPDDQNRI

[2] = target: T2, FcγRIIB protein (human, UniProt P31994 43-217, biotinylated (SureLINK Biotin Kit) in the ELISA of Example 1); experiment: cell-based or functional assay
T2 sequence: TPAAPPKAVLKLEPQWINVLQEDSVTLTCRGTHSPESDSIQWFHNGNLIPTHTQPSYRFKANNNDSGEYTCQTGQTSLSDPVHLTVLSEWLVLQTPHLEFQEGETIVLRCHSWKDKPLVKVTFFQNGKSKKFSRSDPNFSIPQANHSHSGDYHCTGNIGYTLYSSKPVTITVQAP

[3] = target: T3, FcγRIIA protein (human, UniProt P12318 36-217, biotinylated (SureLINK Biotin Kit) in the ELISA of Example 1); experiment: cell-based or functional assay
T3 sequence: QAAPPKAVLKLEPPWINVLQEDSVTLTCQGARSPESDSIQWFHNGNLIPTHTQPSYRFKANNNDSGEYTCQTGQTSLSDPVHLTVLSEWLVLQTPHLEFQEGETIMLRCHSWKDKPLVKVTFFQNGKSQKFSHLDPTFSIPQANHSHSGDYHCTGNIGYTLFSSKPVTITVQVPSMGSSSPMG

[4] = target: T1, human FcγRIIB (NM_004001) expressed on …; experiment: flow cytometry; Expi293F cells transfected with FcγRIIB
[5] = target: T4, human FcγRIIA (NM_021642) expressed on cells (human, UniProt P12318 36-317); experiment: flow cytometry; Expi293F cells transfected with FcγRIIA
T4 construct: Transiently expressed on Expi293F cells; also used here for FcγRIIA on human macrophages in the ADCP assay; also called Expi293F FcγRIIA; HEK293F cells expressing FcγRIIA
T4 sequence: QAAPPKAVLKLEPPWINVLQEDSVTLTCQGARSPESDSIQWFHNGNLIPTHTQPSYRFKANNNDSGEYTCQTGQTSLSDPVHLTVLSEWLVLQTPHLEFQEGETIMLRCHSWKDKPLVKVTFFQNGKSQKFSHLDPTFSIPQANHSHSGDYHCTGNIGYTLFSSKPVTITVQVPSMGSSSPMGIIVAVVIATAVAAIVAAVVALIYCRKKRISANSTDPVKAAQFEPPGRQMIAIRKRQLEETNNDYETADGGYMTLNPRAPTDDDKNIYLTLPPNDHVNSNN
Description: Plasmids expressing cDNAs encoding human FcγRI (NM_000566) (SEQ ID NO: 44), FcγRIIA (NM_021642) (SEQ ID NO: 2), FcγRIIB (NM_004001) (SEQ ID NO: 3), and FcγRIIIA (NM_000569) (SEQ ID NO: 45) (Origene) were transiently transfected into Expi293F cells by ExpiFectamine293 transfection kit (Life Technologies). Flow cytometry assays were performed 48 h after transfection.
2×10⁵ cells per well were seeded in 96-well plate and blocked in BSA Stain Buffer (BD Biosciences, San Jose, USA) for 30 min at 4° C. Cells were incubated with test mAbtyrin on ice for 1.5 h at 4° C. After being washed twice with BSA stain buffer, the cells were incubated with R-PE labeled anti-human or anti-mouse IgG secondary antibody (Jackson Immunoresearch Laboratories) for 45 min at 4° C. The cells were washed twice in stain buffer and then resuspended in 150 μL of Stain Buffer containing 1:200 diluted DRAQ7 live/dead stain (Cell Signaling Technology, Danvers, USA). PE and DRAQ7 signals of the stained cells were detected by Miltenyi MACSQuant flow cytometer (Miltenyi Biotec, Auburn, USA) using B2 and B4 channel respectively. Live cells were gated on DRAQ7 exclusion and the geometric mean fluorescence signals were determined for at least 10,000 live events collected. FlowJo software (Tree Star) was used for analysis. Data was plotted as the logarithm of antibody concentration versus mean fluorescence signals. Nonlinear regression analysis was performed by GraphPad Prism 6 (GraphPad Software, Inc.) and EC₅₀ values were calculated.

[6] = target: T5, human OX40 expressed on HEK-Blue: OX40 cells (human, UniProt P43489 29-277); experiment: flow cytometry; HEK-Blue: OX40 cells
T5 construct: also called CD134
T5 sequence: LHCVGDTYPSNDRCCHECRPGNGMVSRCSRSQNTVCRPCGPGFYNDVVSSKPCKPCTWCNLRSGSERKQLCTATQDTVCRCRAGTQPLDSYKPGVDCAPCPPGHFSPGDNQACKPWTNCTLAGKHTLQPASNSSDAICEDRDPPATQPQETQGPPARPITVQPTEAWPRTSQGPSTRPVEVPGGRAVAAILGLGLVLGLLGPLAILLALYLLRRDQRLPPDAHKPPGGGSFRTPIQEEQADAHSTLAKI
How it was run: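 HEK-Blue Null 1 cells stably transfected with human OX40 were blocked, then incubated with mAbtyrin for 1.5 h at 4 °C. Binding was detected with a PE anti-human IgG F(ab′)₂ secondary, gating on DRAQ7-excluding live cells and taking geometric mean fluorescence. EC50 came from nonlinear regression versus log antibody concentration.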

[7] = target: T1, human FcγRIIB (NM_004001) expressed on …; experiment: cell-based or functional assay; remark: listed apart in the source
[8] = target: T4, human FcγRIIA (NM_021642) expressed on …; experiment: cell-based or functional assay
[9] = target: human FcγRIIIA (NM_000569) expressed on cells (human, UniProt P08637 17-254); experiment: cell-based or functional assay
Sequence of human FcγRIIIA (NM_000569) expressed on cells (P08637 17-254 limits assumed): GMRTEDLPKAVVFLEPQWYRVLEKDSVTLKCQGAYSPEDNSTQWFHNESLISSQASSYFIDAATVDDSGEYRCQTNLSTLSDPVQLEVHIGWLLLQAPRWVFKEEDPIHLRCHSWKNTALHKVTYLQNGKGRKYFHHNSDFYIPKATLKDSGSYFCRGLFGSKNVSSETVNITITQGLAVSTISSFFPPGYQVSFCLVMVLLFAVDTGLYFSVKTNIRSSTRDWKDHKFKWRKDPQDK

- % activity at 1 µg/ml with Raji cells (HEK-Blue: OX40 NF-κB reporter, relative to 1 µg/ml OX40 ligand) [1]: 86%
- fold of agonism enhancement upon crosslinking (Raji cells) [1]: 15 fold
- IFNγ production by activated CD4 T cells, plate-coated FcγRIIb [2]: 1330 pg/mL
- TNFα production by activated CD4 T cells, plate-coated FcγRIIb [2]: 250 pg/mL
- IFNγ production by activated CD4 T cells, plate-coated FcγRIIA [3]: 1550 pg/mL
- TNFα production by activated CD4 T cells, plate-coated FcγRIIA [3]: 226 pg/mL
- EC50 [4]: 0.512 µg/mL
- EC50 [5]: 0.066 µg/mL
- Binding to HEK-Blue: OX40 cells (mean signal at 1 µg/ml) [6]: 9180 mean fluorescence signal
- EC50 [6]: 0.548 µg/mL
- % activity at 1 µg/ml with Raji cells (HEK-Blue: OX40 NF-κB reporter) [7]: 93%
- ADCP EC50 [8]: 0.0375 µg/mL
- ADCC (fold activation) at 1 µg/ml [9]: 1 fold
B1: OX40SF2IgG2sigma_R2BS29_HC-C (bispecific antibody)
heavy: QVQLVQSGAEVKKPGSSVKVSCKASGYTFKDYTMHWVRQAPGQGLEWIGGIYPNNGGSTYNQNFKDRVTLTADKSTSTAYMELSSLRSEDTAVYYCARMGYHGPHLDFDVWGQGTTVTVSSASTKGPSVFPLAPCSRSTSESTAALGCLVKDYFPEPVTVSWNSGALTSGVHTFPAVLQSSGLYSLSSVVTVPSSNFGTQTYTCNVDHKPSNTKVDKTVERKCCVECPPCPAPPAAASSVFLFPPKPKDTLMISRTPEVTCVVVDVSAEDPEVQFNWYVDGVEVHNAKTKPREEQFNSTFRVVSVLTVLHQDWLNGKEYKCKVSNKGLPSSIEKTISKTKGQPREPQVYTLPPSREEMTKNQVSLTCLVKGFYPSDIAVEWESNGQPENNYKTTPPMLDSDGSFFLYSKLTVDKSRWQQGNVFSCSVMHEALHNHYTQKSLSLSPGKGGGGGSGGGGSGGGGSGGGGSLPAPKNLVVSRVTEDSARLSWTAPDAAFDSFPIYYWEYRVGGEAIVLTVPGSERSYDLTGLKPGTEYFVYINGVKGGEESRPLSAIFTT
light: DIQMTQSPSSLSASVGDRVTITCKASQDVGAAVAWYQQKPGKAPKLLIYWASTRHTGVPSRFSGSGSGTDFTLTISSLQPEDFATYYCQQYINYPLTFGGGTKVEIKRTVAAPSVFIFPPSDEQLKSGTASVVCLLNNFYPREAKVQWKVDNALQSGNSQESVTEQDSKDSTYSLSSTLTLSKADYEKHKVYACEVTHQGLSSPVTKSFNRGEC
notes: mAbtyrin: anti-OX40 antibody OX40SF2, effector silent IgG2sigma, with linker and R2BS29 FN3 domain at the C-terminus of the heavy chain; also called mAbtyrin

- IFNγ production by activated CD4 T cells, plate-coated FcγRIIb [2]: 70 pg/mL
- TNFα production by activated CD4 T cells, plate-coated FcγRIIb [2]: 30 pg/mL
- IFNγ production by activated CD4 T cells, plate-coated FcγRIIA [3]: 92 pg/mL
- TNFα production by activated CD4 T cells, plate-coated FcγRIIA [3]: 28 pg/mL
- EC50 [5]: 3.3 µg/mL
- EC50 [6]: 0.229 µg/mL
- % activity at 1 µg/ml with Raji cells (HEK-Blue: OX40 NF-κB reporter) [7]: 9%
- ADCP EC50 [8]: 0.0393 µg/mL
- ADCC (fold activation) at 1 µg/ml [9]: 9 fold
B2: OX40SF2IgG1 (antibody)
heavy: not shown
light: B1 light
notes: Anti-OX40 antibody, wild-type IgG1; control without FN3 domain

- % activity at 1 µg/ml with Raji cells (HEK-Blue: OX40 NF-κB reporter, relative to 1 µg/ml OX40 ligand) [1]: 2.2%
- fold of agonism enhancement upon crosslinking (Raji cells) [1]: 1 fold
- IFNγ production by activated CD4 T cells, plate-coated FcγRIIb [2]: 70 pg/mL
- TNFα production by activated CD4 T cells, plate-coated FcγRIIb [2]: 30 pg/mL
- IFNγ production by activated CD4 T cells, plate-coated FcγRIIA [3]: 97 pg/mL
- TNFα production by activated CD4 T cells, plate-coated FcγRIIA [3]: 28 pg/mL
- EC50 [4]: > 10 µg/mL
- Binding to HEK-Blue: OX40 cells (mean signal at 1 µg/ml) [6]: 13900 mean fluorescence signal
- EC50 [6]: 0.166 µg/mL
- % activity at 1 µg/ml with Raji cells (HEK-Blue: OX40 NF-κB reporter) [7]: 2%
- ADCP EC50 [8]: > 1 µg/mL
- ADCC (fold activation) at 1 µg/ml [9]: 1 fold
B3: OX40SF2IgG2sigma (antibody)
heavy: QVQLVQSGAEVKKPGSSVKVSCKASGYTFKDYTMHWVRQAPGQGLEWIGGIYPNNGGSTYNQNFKDRVTLTADKSTSTAYMELSSLRSEDTAVYYCARMGYHGPHLDFDVWGQGTTVTVSSASTKGPSVFPLAPCSRSTSESTAALGCLVKDYFPEPVTVSWNSGALTSGVHTFPAVLQSSGLYSLSSVVTVPSSNFGTQTYTCNVDHKPSNTKVDKTVERKCCVECPPCPAPPAAASSVFLFPPKPKDTLMISRTPEVTCVVVDVSAEDPEVQFNWYVDGVEVHNAKTKPREEQFNSTFRVVSVLTVLHQDWLNGKEYKCKVSNKGLPSSIEKTISKTKGQPREPQVYTLPPSREEMTKNQVSLTCLVKGFYPSDIAVEWESNGQPENNYKTTPPMLDSDGSFFLYSKLTVDKSRWQQGNVFSCSVMHEALHNHYTQKSLSLSPGK
light: B1 light
notes: Anti-OX40 antibody, IgG2 sigma isotype (effector silent Fc: V234A, G237A, P238S, H268A, V309L, A330S, P331S against wild type IgG2); control without FN3 domain; also called parental antibody; parental OX40 antibody
